# From IntAct's records for PubMed 29039417
# B1: Protein PTHB1 (Homo sapiens), Q3SYG4 (parent)
# chain: MSLFKARDWWSTILGDKEEFDQGCLCLANVDNSGNGQDKIIVGSFMGYLRIFSPHPAKTGDGAQAEDLLLEVDLRDPVLQVEVGKFVSGTEMLHLAVLHSRKLCVYSVSGTLGNVEHGNQCQMKLMYEHNLQRTACNMTYGSFGGVKGRDLICIQSMDGMLMVFEQESYAFGRFLPGFLLPGPLAYSSRTDSFLTVSSCQQVESYKYQVLAFATDADKRQETEQQKLGSGKRLVVDWTLNIGEQALDICIVSFNQSASSVFVLGERNFFCLKDNGQIRFMKKLDWSPSCFLPYCSVSEGTINTLIGNHNNMLHIYQDVTLKWATQLPHIPVAVRVGCLHDLKGVIVTLSDDGHLQCSYLGTDPSLFQAPNVQSRELNYDELDVEMKELQKIIKDVNKSQGVWPMTEREDDLNVSVVVSPNFDSVSQATDVEVGTDLVPSVTVKVTLQNRVILQKAKLSVYVQPPLELTCDQFTFEFMTPDLTRTVSFSVYLKRSYTPSELEGNAVVSYSRPTDRNPDGIPRVIQCKFRLPLKLICLPGQPSKTASHKITIDTNKSPVSLLSLFPGFASQSDDDQVNVMGFHFLGGARITVLASKTSQRYRIQSEQFEDLWLITNELILRLQEYFEKQGVKDFACSFSGSIPLQEYFELIDHHFELRINGEKLEELLSERAVQFRAIQRRLLARFKDKTPAPLQHLDTLLDGTYKQVIALADAVEENQGNLFQSFTRLKSATHLVILLIALWQKLSADQVAILEAAFLPLQEDTQELGWEETVDAAISHLLKTCLSKSSKEQALNLNSQLNIPKDTSQLKKHITLLCDRLSKGGRLCLSTDAAAPQTMVMPGGCTTIPESDLEERSVEQDSTELFTNHRHLTAETPRPEVSPLQGVSE
# partner: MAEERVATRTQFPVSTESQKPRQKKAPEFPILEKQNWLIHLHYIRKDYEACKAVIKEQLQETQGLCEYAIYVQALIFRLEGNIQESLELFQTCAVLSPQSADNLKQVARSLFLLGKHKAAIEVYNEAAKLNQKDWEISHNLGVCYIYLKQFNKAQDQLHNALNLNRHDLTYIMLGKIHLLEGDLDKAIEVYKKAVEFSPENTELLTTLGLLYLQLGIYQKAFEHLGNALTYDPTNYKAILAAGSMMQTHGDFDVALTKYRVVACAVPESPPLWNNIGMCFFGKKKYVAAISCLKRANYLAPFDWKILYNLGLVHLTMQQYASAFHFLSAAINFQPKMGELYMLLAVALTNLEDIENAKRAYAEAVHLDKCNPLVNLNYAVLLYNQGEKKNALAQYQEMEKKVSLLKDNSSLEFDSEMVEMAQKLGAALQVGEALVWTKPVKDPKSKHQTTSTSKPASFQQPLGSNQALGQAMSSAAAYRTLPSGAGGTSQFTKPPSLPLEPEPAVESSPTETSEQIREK
# Variants of: B1
# Conditions: with bbs4_human BBS4, Q96RK4
row,Variant,effect of a mutation on the interaction
1,H811A,with no effect
2,H811E,with no effect
3,H811K,with no effect
4,L819K,with no effect
5,L819A,with no effect
6,L819E,with no effect
7,K821E,with no effect
8,K821A,with no effect
9,A832E,with no effect
10,A832K,with no effect
11,I801A,disrupting interaction strength
12,I801E,with no effect
13,I801K,with no effect
14,Q798K,disrupting interaction strength
15,Q798E,with no effect
16,L827K,with no effect
17,L827E,with no effect
18,L827A,with no effect
19,P840S,disrupting interaction strength
20,P840E,with no effect
21,P840A,disrupting interaction strength
22,P840K,with no effect
23,I812E,with no effect
24,I812K,with no effect
25,I812A,with no effect
26,E853A,with no effect

row,Variant,effect of a mutation on the interaction
1,E853K,with no effect
2,G842E,with no effect
3,G842A,with no effect
4,G842K,with no effect
5,N800K,with no effect
6,N800E,with no effect
7,N800A,with no effect
8,Q835K,with no effect
9,Q835E,with no effect
10,Q835A,with no effect
11,Q835M,disrupting interaction strength
12,T829K,with no effect
13,T829A,with no effect
14,T829E,with no effect
15,L808A,with no effect
16,L808E,with no effect
17,L808K,with no effect
18,G841A,with no effect
19,G841K,with no effect
20,G841E,with no effect
21,S855K,with no effect
22,S855E,with no effect
23,S855A,with no effect
24,T836K,with no effect
25,T836E,with no effect
26,T836A,with no effect

row,Variant,effect of a mutation on the interaction
1,T844K,with no effect
2,T844E,with no effect
3,T844A,with no effect
4,R854A,with no effect
5,R854E,with no effect
6,R854K,with no effect
7,D850E,with no effect
8,D850K,with no effect
9,D850A,with no effect
10,A831K,with no effect
11,A831E,with no effect
12,E848A,with no effect
13,E848K,with no effect
14,K810A,with no effect
15,K810E,with no effect
16,G823E,with no effect
17,G823K,with no effect
18,G823A,with no effect
19,T805E,with no effect
20,T805K,with no effect
21,T805A,with no effect
22,R818A,with no effect
23,R818E,with no effect
24,R818K,with no effect
25,R818T,disrupting interaction strength
26,D817K,with no effect

row,Variant,effect of a mutation on the interaction
1,D817E,with no effect
2,D817A,with no effect
3,L799K,with no effect
4,L799A,with no effect
5,L799E,with no effect
6,K809E,with no effect
7,K809A,with no effect
8,L815K,with no effect
9,L815A,with no effect
10,L815E,with no effect
11,R824A,with no effect
12,R824K,with no effect
13,R824E,with no effect
14,V838E,disrupting interaction strength
15,V838A,disrupting interaction strength
16,V838K,disrupting interaction strength
17,Q858K,with no effect
18,Q858E,with no effect
19,Q858A,with no effect
20,C816E,with no effect
21,C816A,with no effect
22,C816K,with no effect
23,L851E,with no effect
24,L851K,with no effect
25,L851A,with no effect
26,T845A,with no effect

row,Variant,effect of a mutation on the interaction
1,T845E,with no effect
2,T845K,with no effect
3,P802K,with no effect
4,P802A,with no effect
5,P802T,disrupting interaction strength
6,P802E,with no effect
7,S820A,with no effect
8,S820K,with no effect
9,S820E,with no effect
10,P834E,with no effect
11,P834K,with no effect
12,P834A,with no effect
13,M839E,disrupting interaction strength
14,M839K,with no effect
15,M839A,disrupting interaction strength
16,L814E,with no effect
17,L814K,with no effect
18,L814A,with no effect
19,I846A,with no effect
20,I846E,with no effect
21,I846K,with no effect
22,P847E,with no effect
23,P847K,with no effect
24,P847A,with no effect
25,E852A,with no effect
26,E852K,with no effect

row,Variant,effect of a mutation on the interaction
1,S806E,with no effect
2,S806A,with no effect
3,S806K,with no effect
4,L825K,with no effect
5,L825E,with no effect
6,L825A,with no effect
7,D804A,with no effect
8,D804E,with no effect
9,D804F,disrupting interaction strength
10,D804K,with no effect
11,S828K,with no effect
12,S828A,with no effect
13,S828E,with no effect
14,V856E,with no effect
15,V856K,with no effect
16,V856A,with no effect
17,G822K,with no effect
18,G822A,with no effect
19,G822E,with no effect
20,S849A,with no effect
21,S849E,with no effect
22,S849K,with no effect
23,C826R,disrupting interaction strength
24,C826A,with no effect
25,C826E,with no effect
26,C826K,with no effect

row,Variant,effect of a mutation on the interaction
1,D830A,with no effect
2,D830K,with no effect
3,D830E,with no effect
4,E857K,with no effect
5,E857A,with no effect
6,C843A,with no effect
7,C843K,with no effect
8,C843E,with no effect
9,T813K,with no effect
10,T813E,with no effect
11,T813A,with no effect
12,K803A,with no effect
13,K803E,with no effect
14,Q807K,with no effect
15,Q807A,with no effect
16,Q807E,with no effect
17,M837A,with no effect
18,M837E,with no effect
19,M837K,with no effect
20,M837I,disrupting interaction strength
21,A833S,disrupting interaction strength
22,A833K,with no effect
23,A833E,with no effect
